Measured values as given in the nanobody polyreactivity screen of Harvey et al. (2022).

Experiment: yeast display, Sf9 membrane polyspecificity reagent, FACS + sequencing; frameworks hold sequencing errors
Procedure, shortened: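 Galactose induction of a Saccharomyces cerevisiae BJ5465 synthetic nanobody display library ran 36–48 hours. The cells were then stained for 1 hour at 4 °C with 10% biotinylated, detergent-solubilized Sf9 membrane reagent, pulled down on streptavidin microbeads and FACS-sorted into low and high (top ~1%) gates on expression and reagent-binding fluorescence. Labels for polyreactivity follow the gate of origin.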

Sequence | polyreactivity (PSR sort gate)
QVQLVESGGGLVQAGGSLRLSCAASGRISYLYTMGWYRQAPGKERELVAAIRWRDGSTYYADSVKGRFTISRDNAKNTVYLQMNSLKPEDTAVYYCASTPVGFYWYDYWGQGTQVTVSS | low polyreactivity
QVQLVESGGGLVQAGGSLRLSCAASGRISYSYAMGWYRQAPGKERELVAAISYSGGTTYYADSVKGRFTISRDNAKNTVYLQMNSLKPEDTAVYYCAVDGYDTYGFNGYYIRSGYWGQGTQVTVSS | low polyreactivity
QVQLVESGGGLVQAGGSLRLSCAASGRITYYAMGWYRQAPGKERELVAAITWSGGRTYYADSVKGRFTISRDNAKNTVYLQMNSLKPEDTAVYYCAKTRIYSKHWTEPYFYRVDSWGQGTQVTVSS | high polyreactivity
QVQLVESGGGLVQAGGSLRLSCAASGRIVGRYAMAWYRQAPGKERELVAAISSGTSTNYADSVKGRFTISRDNAKNTVYLQMNSLKPEDTAVYYCAVVLYRHWWYDYWGKGTQVTVSS | high polyreactivity
QVQLVESGGGLVQAGGSLRLSCAASGRIVSHYAMGWYRQAPGKERELVAAISRSGSTYYADSVKGRFTISRDNAKNTVYLQMNSLKPEDTAVYYCATRLYTVGPYGYWGQGTQVTVSS | low polyreactivity
QVQLVESGGGLVQAGGSLRLSCAASGRIVYSNTMGWYRQAPGKERELVARIDTGGGSTYADSVKGRFTISRDNAKNTVYLQMNSLKPEDTAVYYCNKKGRWRSWGSTSLVSMDYWGQGTQVTVSS | low polyreactivity
QVQLVESGGGLVQAGGSLRLSCAASGRIVYYNVMGWYRQAPGKEREFVAAISTRTGSTYYADSVKGRFTISRDNAKNSVYLQMNRLKPEDTAVYYCAAPYRAYSYDYWGQGTQVTVSS | high polyreactivity
QVQLVESGGGLVQAGGSLRLSCAASGRIWVNALGWYRQAPGKEREFVAAISTSSASTYYADSVKGRFTISRDNAKNTVYLQMNSLKPEDTAVYYCASRYLGKKYYWFKTMDYWGQGTQVTVSS | high polyreactivity
QVQLVESGGGLVQAGGSLRLSCAASGRIYGNAMGWYRQAPGKERELVAAISWSGGSTYYADSVKGRFTISRDNAKNTVYLQMNSLKPEDTAVYYCAATYPQGKYTYGRSYDYWGQGTQVTVSS | high polyreactivity
QVQLVESGGGLVQAGGSLRLSCAASGRIYGVYVMGWYRQAPGKERELVAAISWSGSHTYYADSVKGRFTISRDNAKNTVYLQMNSLKPEDTAVYYCKADSYPDYTGPGLDWYDYWGQGTQVTVSS | low polyreactivity
QVQLVESGGGLVQAGGSLRLSCAASGRIYGYAMGWYRQAPGKEREFVAVISRRGSSTYYADSVKGRFTISRDNAKNTVYLQMNSLKPEDTAVYYCAAGKFYYSIGPGYDYWGQGTQVTVSS | high polyreactivity
QVQLVESGGGLVQAGGSLRLSCAASGRIYLYAMGWYRQAPRKERELVASISYSGGSTYYADSVKGRFTISRDNAKNTVYLQMNSLKPEDTAVYYCATRRAGSCPPYGYWGQGSQVTVSS | high polyreactivity
QVQLVESGGGLVQAGGSLRLSCAASGRIYNRNAMGWYRQAPGKERDLVAAITYRGGSTYYADSVKGRFTISRDNAKNTVCLQMNSLKPEDTAVYYCAKDVKQWSVSASYRFGYWGQGTQVTVSS | high polyreactivity
QVQLVESGGGLVQAGGSLRLSCAASGRIYPYAMGWYRQAPGKERELVAAITSRGGTTYYADSVKGRFTISRDNAKNTVYLQMNSLKPEDSAVYYCAADQHIRVSWYLQMYYWGQGTQVTVSS | low polyreactivity
QVQLVESGGGLVQAGGSLRLSCAASGRIYRYAMGWYIQAPGKERELVASISYSGGSTYYADSVKGRFTISRDNAKNTVYLQMNSLKPEDTAVYYCAARTRHVHYGYWGQGTQVTVSS | high polyreactivity
QVQLVESGGGLVQAGGSLRLSCAASGRIYRYVMGWYRQAPGKERELVATITGRGGSTYYADSVKGRFTISRDNAKHTVYLQMNILKPEDTAVYYCAAAGRGSWTTYRFDYWGQGTQVTVSS | high polyreactivity
QVQLVESGGGLVQAGGSLRLSCAASGRIYSVYTMGWYRQAPGKERELVATISSGGRTNYADSVKGRFTISRDNAKNTVYLQMNSLKPEDTAVYYCAADWVYPPGLKDSVHFGEYDYWGQGTQVTVSS | low polyreactivity
QVQLVESGGGLVQAGGSLRLSCAASGRIYSWYAMGWYRQAPGKERELVAVISRGVSTYYADSVKGRFTISRDNAKNTVYLQMNSLKPEDTAVYYCAAYSGGRYYYWGQGTQVTVSS | low polyreactivity
QVQLVESGGGLVQAGGSLRLSCAASGRIYTYYAMGWYRQAPGKERELVAAISSGGSTYYADSVKGRFTISRDNAKNTVYLQMNSLKPEDTAVYYCNRVRRGVWRQDDYWGQGTQVTVSS | high polyreactivity
QVQLVESGGGLVQAGGSLRLSCAASGRIYWYYAMAWSRQAPGKERELVAAINSGGNTNYADSVKGRFTISRDNAKNTVYLKMNSLKPEDTAVYYCAKGRWPLLLSKDLYYWGQGTQVTVSS | high polyreactivity
QVQLVESGGGLVQAGGSLRLSCAASGRLFNEYAMGWYRQAAGNVRALVAGITWSGGSTSYADSVKGRFTISRDYAKNTVYLQMIILKPEDTAVYYCAADVYRRLRRYRYFYWGQGTQVTVSS | low polyreactivity
QVQLVESGGGLVQAGGSLRLSCAASGRLFWYNAMGWYRQAPGKERELVARITRGTRTYYADSVKGRFTISRDNAKNTVSLQMNSLKPEDTAVYYCRLQLSYTPHYDYWGQGTQVTVSS | high polyreactivity

Sequence | polyreactivity (PSR sort gate)
QVQLVESGGGLVQAGGSLRLSCAASGRLSDNVMGWYRQAPGKERELVAAISSSGGTTYYADSVKGRFTISRDNAKNTVYLQMNSLKPEDTAVYYCNARTRGKMDYWGQGTQVTVSS | high polyreactivity
QVQLVESGGGLVQAGGSLRLSCAASGRMFGRYVMGWYRQAAGKERELVASISTRGGRTYYADSVKGRFTISRDIAKNTVYLQMNSLKPEDTAVYYCAVVYPRFGAYDYWGQCTQVTVSS | high polyreactivity
QVQLVESGGGLVQAGGSLRLSCAASGRMFKINAMGCYRQAPGKERELVASIRTSSGSTYSADSVKGRFTLSRDNAKNTVYLQMNSLKPEDTAVYYCATQYRYYNHFVTPFTRYGYWGQGTQVTVSS | high polyreactivity
QVQLVESGGGLVQAGGSLRLSCAASGRNFAKYAMGWYRQAPGKERELVAAINSSGGSTYYADSVKGRFTISRDNAKNTVYLQMNSLKPEDTAVYYCAALGIGSYRRYSGYDYWGQGTQVTVSS | low polyreactivity
QVQLVESGGGLVQAGGSLRLSCAASGRNFAWYAMGWYRQAPGKEREFVAAITYRAARTYYADSVKGRFTISRDNAKNTVYLQMNSLKPEDTAVYYCNAVGFDQPRYYYWGQGTQVTVSS | high polyreactivity
QVQLVESGGGLVQAGGSLRLSCAASGRNFAYYAMGWYRQEPGKERELVAVISKSGGSTNYADSVKGRFTISRDNAKNTVYLQMNSLKPEDTAVYYCAKRAYDPEMYYWGQGTQVTVSS | low polyreactivity
QVQLVESGGGLVQAGGSLRLSCAASGRNFFRYAMGWYRQAPGKERELVATISRSGGTYADSVKGRFTISRDNAKNTVYLQMNSLKPEDTAVYYCNARTLYAYITRDYWGQGTQVTVSS | high polyreactivity
QVQLVESGGGLVQAGGSLRLSCAASGRNFFTYAMGWYRQAPGKERELVASITGSGGSTYYADSVKGRFTISRDNAKYTVYLQMNSLKPEDTAVYYCAAALFRRQLYRKFYYWGQGTQVTVSS | low polyreactivity
QVQLVESGGGLVQAGGSLRLSCAASGRNFGWYAMGWYRQATGKERELVAAITSGSRTSYADSVKGRFTISRDNAKNTVYLQMNSLKPEDTAVYYCARRSYGIYYRSADDSWGQGTQVTVSS | high polyreactivity
QVQLVESGGGLVQAGGSLRLSCAASGRNFHKYAMGWYRQAPGKERELVAAITGSGVRTYYADSVKGRFTISRDNAKNTVYLQMNSLKPEDTAVYYCNADSYYGNGDYWGQGTQVTVSS | high polyreactivity
QVQLVESGGGLVQAGGSLRLSCAASGRNFIVNAMGWYRQAHGKEREFVAAITSRGGITYYADSVKGRFTISRDNAKNTVYLQMNSLKPEDTAVYYCAAGYITWGSGNWVVTPYDYWGQGTQVTVSS | high polyreactivity
QVQLVESGGGLVQAGGSLRLSCAASGRNFNFNTIGWYRQAAGKEREFLAAITFRGVRTYYADSVKGRFTISRDNAKNTVYLQMISLKPEDTAVYYCATQARLYGGYDRYAGSYDYWGQGTQVTVSS | high polyreactivity
QVQLVESGGGLVQAGGSLRLSCAASGRNFPRYAMGWYRQAPGKERELVAAISWRGGSTRYADSVKGRFTISRDNEKNTVYLQMNSLKPEDTAVYYCAAEFWFFPGWAYEYWGQGTQVTVSS | high polyreactivity
QVQLVESGGGLVQAGGSLRLSCAASGRNFPTKAMGWYREAPGTERELVAAITRSGSTYYADSVKGRFTISRDNAKNTVYLQMNSLKPEDTAVYYCAAYAYIFLDWGGYPYYLYEYDDWGQGTQVTVSS | low polyreactivity
QVQLVESGGGLVQAGGSLRLSCAASGRNFRRYTMGWYRQAPGKERELVATISSGGSTYADSVKGRFTISRDNAKNTVYLQMNSVKPEDSAVYYCAAQTWGSGYGNIGRRRHDYWGQGTQVTVSS | high polyreactivity
QVQLVESGGGLVQAGGSLRLSCAASGRNFVYNAMGWYRQAPGKERELVAAITWGGGSTYYADSVKGRFTISRDKAKNTVYLQMNSLKPEDTAVYYCAADGVRKFPNSRYDYWGQGTQVTVSS | low polyreactivity
QVQLVESGGGLVQAGGSLRLSCAASGRNFWFNAMGWYRQAPGKVRELVAAISGGSTNYADSVKGRFTISRDNAKNHVYLQMNSLKPEDTAVYYCAARYLLRYNWGQGTQVTVSS | high polyreactivity
QVQLVESGGGLVQAGGSLRLSCAASGRNFYRNAMGWSRQAPGKERELVAAITGSGGITYYADSVKGRFTISRDNAKYTVYLQMNRLKPEDTGVYYCNARYYSHRYDYWGQGTQVTVSS | high polyreactivity
QVQLVESGGGLVQAGGSLRLSCAASGRNFYSNAMGWYRQAPGKERELVAAIRWRDGSTYYADSVKGRFTISRDNAKNTVYLQMNSLKPEDTAVYYCAAVYWGEEYEYWGQGTQVTVSS | low polyreactivity
QVQLVESGGGLVQAGGSLRLSCAASGRNILPYAMGWYRPSPGKERELVAAISVSGVITYYAESVKGRFTISRDNAKNTVYLQMNSLKPEDTEVYYCASDYTPRRWGRLYDYWGQGTQVTVSS | low polyreactivity
QVQLVESGGGLVQAGGSLRLSCAASGRNILVYAMGWYRQAPGKERELVAAISSGGSTYYADSVKGRFTISRDNAKNTVYLQMNSLKPEDTAVYYCAAQFDVYYSRQPYDYNRSGYWGQGTQVTVSS | low polyreactivity
